This note sets out measurements from US6890721.

The data set has as its target poly (ADP-ribose) polymerase (PARP).

B1: granzyme B-processed Yama (activated) (protein)
chain: SGISLDNSYKMDYPEMGLCIIINNKNFHKSTGMTSRSGTDVDAANLRETFRNLKYEVRNKNDLTREEIVELMRDVSKEDHSKRSSFVCVLLSHGEEGIIFGTNGPVDLKKITNFFRGDRCRSLTGKPKLFIIQACRGTELDCGIETDSGVDDDMACHKIPVEADFLYAYSTAPGYYSWRNSKDGSWFIQSLCAMLKQYADKLEFMHILTRVNRKVATEFESFSFDATFHAKKQIPCIVSMLTKELYFYH
With B1, the “PARP cleavage (immunoblot with anti-PARP monoclonal antibody C-2-10)” value was “Both granzyme B-processed Yama and ICE LAP-6 were active as determined by their ability to cleave PARP”.

B2: granzyme B-processed ICE LAP-6 (activated) (protein)
chain: IGSGGFGDVGALESLRGNADLAYILSMEPCGHCLIINNVNFCRESGLRTRTGSNIDCEKLRRRFSSLHFMVEVKGDLTAKKMVLALLELARQDHGALDCCVVVILSHGCQASHLQFPGAVYGTDGCPVSVEKIVNIFNGTSCPSLGGKPKLFFIQACGGEQKDHGFEVASTSPEDESPGSNPEPDATPFQEGLRTFDQLDAISSLPTPSDIFVSYSTFPGFVSWRDPKSGSWYVETLDDIFEQWAHSEDLQSLLLRVANAVSVKGIYKQMPGCFNFLRKKLFFKTSHHHHHH
As for B2, the “PARP cleavage (immunoblot with anti-PARP monoclonal antibody C-2-10)” value was “Both granzyme B-processed Yama and ICE LAP-6 were active as determined by their ability to cleave PARP”.
